This passage reports % inhibition of poly(I:C)-induced NF-κB luciferase reporter results from patent publication US9932404B2.

The assay deals with full length human TLR3 (human).

As for “TLR3.7 (eBiosciences, cat no 14-9039) (antibody)”, the % inhibition of poly(I:C)-induced NF-κB luciferase reporter came to 8%.
